One series concerns the target R403A Drp1 (UniProt O00429). The experiment in a line: not stated; R403A Drp1 in solution (Supplementary Fig. 4a); the same protein was used as a dimer for SEC-SAXS at ~34 uM in buffer A with 1 mM DTT. A general note: Size exclusion chromatography separates by hydrodynamic size, large species first.
Series [1] has as its target human dynamin-related protein 1 (Drp1) isoform 3, wild type, N-terminal His6 tag (human) (UniProt O00429).
Series [2] deals with the molecule itself. In words: SEC-MALS; full-length GIPC-1, unliganded, 10 uM at injection, Superdex 200 10/300 GL.
Series [3] concerns the molecule itself. In words: SEC-MALS; Drp1 in the nucleotide-free apo state, Superose 6 10/300 GL; injected at 5 uM, ~0.5 uM at peak detection; other injection concentrations in the supplement.
Series [4] deals with the molecule itself. The experiment in a line: negative-stain EM; 2D class averages of single particles, Drp1 at 2 uM, apo state.

Values joined by “and” are separate entries in the source; they are usually repeats but may differ in a detail not shown here. Identical values can stand only once.

A word on the stoichiometry N: it is a count of units in the complex or per binding partner. As for “R403A Drp1 (from UniProt O00429-4 1-699) (enzyme)”, the stoichiometry N with R403A Drp1 was 2.

B1: mouse GIPC-1 (GAIP interacting protein, C-terminus 1), full length (natural protein, UniProt Q9Z0G0 1-333, looked up)
chain: MPLGLGRRKKAPPLVENEEAEPSRSGLGVGEPGPLGGSAAGESQMGLPPPPAALRPRLVFHTQLAHGSPTGRIEGFTNVKELYGKIAEAFRLPAAEVMFCTLNTHKVDMDKLLGGQIGLEDFIFAHVKGQRKEVEVFKSEEALGLTITDNGAGYAFIKRIKEGSVIDHIQLISVGDMIEAINGQSLLGCRHYEVARLLKELPRGRTFTLKLTEPRKAFDMISQRSAGGHPGSGPQLGTGRGTLRLRSRGPATVEDLPSAFEEKAIEKVDDLLESYMGIRDTELAATMVELGKDKRNPDELAEALDERLGDFAFPDEFVFDVWGAIGDAKVGRY
notes: GIPC-1, mouse, full length; also called full-length GIPC-1; source: subcloned in pGEX-6P1, expressed and purified using standard protocols; GST removed by HRV3C; not shown: GST, N-terminal, cleaved
As for B1, in series [1], the fission of free-standing lipid nanotubes by WT Drp1 with GIPC-1 at 1:1 (0.5 uM each), 1 mM GTP is more than 30%. Besides, the “stoichiometry N” value in series [2] worked out at 2.

B2: human dynamin-related protein 1 (Drp1) isoform 3, wild type, N-terminal His6 tag (enzyme, UniProt O00429-4 1-699, looked up)
chain: MEALIPVINKLQDVFNTVGADIIQLPQIVVVGTQSSGKSSVLESLVGRDLLPRGTGIVTRRPLILQLVHVSQEDKRKTTGEENGVEAEEWGKFLHTKNKLYTDFDEIRQEIENETERISGNNKGVSPEPIHLKIFSPNVVNLTLVDLPGMTKVPVGDQPKDIELQIRELILRFISNPNSIILAVTAANTDMATSEALKISREVDPDGRRTLAVITKLDLMDAGTDAMDVLMGRVIPVKLGIIGVVNRSQLDINNKKSVTDSIRDEYAFLQKKYPSLANRNGTKYLARTLNRLLMHHIRDCLPELKTRINVLAAQYQSLLNSYGEPVDDKSATLLQLITKFATEYCNTIEGTAKYIETSELCGGARICYIFHETFGRTLESVDPLGGLNTIDILTAIRNATGPRPALFVPEVSFELLVKRQIKRLEEPSLRCVELVHEEMQRIIQHCSNYSTQELLRFPKLHDAIVEVVTCLLRKRLPVTNEMVHNLVAIELAYINTKHPDFADACGLMNNNIEEQRRNRLARELPSAVSRDKVASGGGGVGDGVQEPTTGNWRGMLKTSKAEELLAEEKSKPIPIMPASPQKGHAVNLLDVPVPVARKLSAREQRDCEVIERLIKSYFLIVRKNIQDSVPKAVMHFLVNHVKDTLQSELVGQLYKSSLLDDLLTESEDMAQRRKEAADMLKALQGASQIIAEIRETHLW
notes: dynamin-related protein 1 (Drp1), human, isoform 3, 699 residues, ends in the CT-SLiM R694-W699 (RETHLW); numbers count on: isoform 3 (699 residues); also called WT Drp1; WT
For the molecule B2, the “stoichiometry N” value in series [3] is 2 and 4.

B3: human Drp1 isoform 3 ΔCT4 (last four residues of the CT-SLiM removed) (enzyme, UniProt O00429-4 1-695, looked up)
chain: MEALIPVINKLQDVFNTVGADIIQLPQIVVVGTQSSGKSSVLESLVGRDLLPRGTGIVTRRPLILQLVHVSQEDKRKTTGEENGVEAEEWGKFLHTKNKLYTDFDEIRQEIENETERISGNNKGVSPEPIHLKIFSPNVVNLTLVDLPGMTKVPVGDQPKDIELQIRELILRFISNPNSIILAVTAANTDMATSEALKISREVDPDGRRTLAVITKLDLMDAGTDAMDVLMGRVIPVKLGIIGVVNRSQLDINNKKSVTDSIRDEYAFLQKKYPSLANRNGTKYLARTLNRLLMHHIRDCLPELKTRINVLAAQYQSLLNSYGEPVDDKSATLLQLITKFATEYCNTIEGTAKYIETSELCGGARICYIFHETFGRTLESVDPLGGLNTIDILTAIRNATGPRPALFVPEVSFELLVKRQIKRLEEPSLRCVELVHEEMQRIIQHCSNYSTQELLRFPKLHDAIVEVVTCLLRKRLPVTNEMVHNLVAIELAYINTKHPDFADACGLMNNNIEEQRRNRLARELPSAVSRDKVASGGGGVGDGVQEPTTGNWRGMLKTSKAEELLAEEKSKPIPIMPASPQKGHAVNLLDVPVPVARKLSAREQRDCEVIERLIKSYFLIVRKNIQDSVPKAVMHFLVNHVKDTLQSELVGQLYKSSLLDDLLTESEDMAQRRKEAADMLKALQGASQIIAEIRE
notes: Drp1, human, isoform 3, without the last four residues (T696-W699) of the 699; numbers count on: isoform 3 (699 residues); Limits worked out from 'the last four residues removed' and W699 as the last residue; also called ΔCT4 Drp1; ΔCT4 variant
As for B3, the entries for the “stoichiometry N” value in series [3] and in series [4] were 4 and 2, respectively.

B4: human Drp1 isoform 3 ΔCT6 (last six residues, the whole CT-SLiM, removed) (enzyme, UniProt O00429-4 1-693, looked up)
chain: MEALIPVINKLQDVFNTVGADIIQLPQIVVVGTQSSGKSSVLESLVGRDLLPRGTGIVTRRPLILQLVHVSQEDKRKTTGEENGVEAEEWGKFLHTKNKLYTDFDEIRQEIENETERISGNNKGVSPEPIHLKIFSPNVVNLTLVDLPGMTKVPVGDQPKDIELQIRELILRFISNPNSIILAVTAANTDMATSEALKISREVDPDGRRTLAVITKLDLMDAGTDAMDVLMGRVIPVKLGIIGVVNRSQLDINNKKSVTDSIRDEYAFLQKKYPSLANRNGTKYLARTLNRLLMHHIRDCLPELKTRINVLAAQYQSLLNSYGEPVDDKSATLLQLITKFATEYCNTIEGTAKYIETSELCGGARICYIFHETFGRTLESVDPLGGLNTIDILTAIRNATGPRPALFVPEVSFELLVKRQIKRLEEPSLRCVELVHEEMQRIIQHCSNYSTQELLRFPKLHDAIVEVVTCLLRKRLPVTNEMVHNLVAIELAYINTKHPDFADACGLMNNNIEEQRRNRLARELPSAVSRDKVASGGGGVGDGVQEPTTGNWRGMLKTSKAEELLAEEKSKPIPIMPASPQKGHAVNLLDVPVPVARKLSAREQRDCEVIERLIKSYFLIVRKNIQDSVPKAVMHFLVNHVKDTLQSELVGQLYKSSLLDDLLTESEDMAQRRKEAADMLKALQGASQIIAEI
notes: Drp1, human, isoform 3, without the last six residues (R694-W699) of the 699; numbers count on: isoform 3 (699 residues); Limits worked out from 'the last six residues removed' and W699 as the last residue; also called ΔCT6 Drp1; ΔCT6 variant
As to B4, the “stoichiometry N” value in series [3] came to 4; in series [4], 2.

These data come from publication PMC10761769, “Allosteric control of dynamin-related protein 1 through a disordered C-terminal Short Linear Motif” (Nature Communications, 2024).
